Data taken from a protein production outcome set (Wang et al. 2014).

assay: label from the status in PepcDB records

Q: Which protein production does the source give for “MSKHVLRLALVGNPNSGKTALFNRLTGSRQKVANYPGVTVERKEGYFRASSGREFVILDLPGAYSFQPASFDEAITRDFCRGFYPGEAPPDVLVCVVDATNLRLHLRFVLELIELGRPVVVALNMVDAAQRRGIRIDRVILEQLLGVPVVETVAVRRHGARALLEQLDTGVIPLPAPVPALAAGDQYHAQVRHILDAAVKMPSRTSRVDDALDRWLLHPVFGLVVLTVVMFLIFQAVYAWAAPLVSLIEGSTTVLGHWVGNRLPDGPLRSLVVDGIITGIGGVLMFLPQILILFAFILALEESGYLPRAAFLLDRLMVLAGLSGRSFIPLLSSFACAVPGIMSTRSIQDPRDRLVTILVAPLMTCSARLPVYTLLIGAFVPRKSLWGPINQQGLVLFGLYMAGIFSALVVSWTVKKWRRGTSEHPLLLELPSYRLPHSRDLLLGLWERAVIFLKRVGGIILALTILLWFLLAFPEPPSGAIGPAIQYSFAGRIGHVIAVFFAPLGFSWQICIALIPGLAAREVAVSSLATVYALSASNEEMAVRALSPLIQDGWSLATALSLLVWYIYAPMCISTLVTIKRETNSWKHMAMTAGYLFALAYLAALATYQVALLLGAG” here?
A: The protein production was “failed”.

Q: For “MSKIGRNDPCPCGSGKKYKQCCFHRATSAAATPDAEMLWRAGNAHLAGGALDMALSCYREAVRLRPGFAQAHYNLGVVFQQKGLLDEAAASFRSAISFNRDYAKAYNNLGYILATQGRLDESADCFNRAIAIEPGFAAAYHNLGTTLRHQGRLDETLAAFRTAHAINPHDPVFHSDLLMMLHYSDMDDETLFREHVRWGEQHAPAAASVPTHQCDRDPGRKLRIGYVSGDFGKHPVGYFLLPFLENHDRSQFEICCYSERGQRQEDDVTARIKGHADLWRRTIGLGDAAVAEMIRADGIDILVDLAGHTAHNRLRVFALKPAPVQVTWLGYPNTTGLRAMDYRITDAVADPPGSADALHTEQLIRLEQGFLCYTPPAGAPPVGEAPCLAGAGVTFGSFNNLAKVSPQVIDAWSAILGRVPGSRLMLKFKGFADETCRRRVSDAFGARGVSPDRLELVSFVENFNDHLALYNRLDLALDTFPYNGTATTCDALWMGVPVLTCCGTRHVARVGASILTSLGLPELITHSPEEYISAAAALAADPARLAALRRDMRPRLAASPLCDPTGFARRMETALRDIWRRWCSA”, which protein production is on record?
A: The protein production was “failed”.

Q: With “MSKISDNHDHSALQFMKKKVRENGSRDIRQIYVPAYTQVPLPNNMKKQIFFWLGALIFFILFMLVFGSILLPFVAGIVLAYFLNPIVQLLEKFRIRRVFGTILITLFIVVVFVAALIILIPIISWQIQQFMNDGLPVYINRIQTFFVEHDFDWVRRYFGSDPNELQSNIKGLLGQSSDFITSLLNSLLKSGKSLVNIVSLFVVAPVVAFYMLLDWPRMVTAVDSLIPRDHLETVRSIFHEMDRAIAGFVRGQGTACLILGGYYAIGLTITELNFGLLIGMFIGLISFVPYIGTMSGFLLSVGVAWVQFYPNNWGWIIVVMVIFLIGQFIEGYILQPKLVGSSVGLHPVWLMFALFAFSSLFGFTGMLIAVPAAAAVGVLVRFALHTYLNSQMYSRSGNSERLE” as the sequence, how does the protein production read?
A: The protein production was “failed”.

Q: Which protein production does the source give for “MSKKINELLRYCEENYIERGSLELALRCAVSICKANPDAPQAYAHVAAYRILLTAANYRTVTGEPDWYAVLGINKRGSSKSVVNAIDRRCEEIIEVLDGETGVSKAVSRVYDLVRLGVSELMDEDRRRAYDLRSGFSIIN” here?
A: The protein production was “failed”.

Q: Which protein production does the source give for “MSKKKSAAMTLKDFHGGSIPSDLPLPSAPGVTPKVIPDRPVFDRAPWGNSIGRPDQRARPSSSHAIRNLDDKSLFLPHNVNIGRNFSEDERKPLDGHSAPRRVVSDDVFRFANNRLEMKADSVLAGRHSGWAAGPLTHSGTGNIENSVSGNHSNIWNGRKEVSVANNEPGQSPWTKQPAVSNLVHTSALDQVSSGGWQSKLLVPSQMGFDVVKHSEIDTRVYKTNSPVISQGVEPHGTHVERALIAEDGIQRGKKLSREYEKIPGPTYVDAKEAKIVANTNDKPHPKYSDVKPAGHLVQPTAPSEVVERPKLNLLPRTKPLESVEKPVNDEKLENSASVLIQRENATQKSFNNSKSGLSTDEIPNQPAERPKLNLKPVAQLLEQPEVKTEKDRSAVFGGARPRELVLKERGIDEPEHHKLDQPTDRMVLKPIERVPEHASQRPVSSPRDMRTRKFDQKDGRNVSDIARSETQRRNWRENENKSARQQQQTQEKTRHPSPETWRKPVPQKLDSPNGTGIRHGKAASALELAQAYSPFSDPKSGIGSSNSFNKSRNNQTQQQPFSRLVGSTTTGRQINGY” here?
A: The protein production was “failed”.

Q: With “MSKKLVLLIISILCFTALTGCWIVRSDLSGDIIIGDGHGGTSHSIIKYNPATNKFESVEPGLYYEVEYNDDKSKILCYRFLENSEVRRFEICEYDIKSKKFGEPIFIPGDSQKFKGSVKYVPNSDRISFVLDYELHIYDRSSGTLTKLFEVAFNSYSWDNTGKKLLYGDYDENIYIYDMESNEKRKILTGICPVYSNSNEYIAYIGIDQRLTVYNVNTGKKWRTVPVDDSARYIFSPDDKYILLGTEYADLMSFPHYTLYILDYKTGKKKRLFGGEGNVPSLDWK” as the sequence, how does the protein production read?
A: Its protein production is “failed”.

Q: Which protein production does the source give for “MSKLIFSVLISVYYNESISYFKKSLDSILYQTLLPAEVVLVKDGILTDDLNCIVKEYSQKYPILKVISLPVNQGLGKALNEGLKHCSYDLVARMDTDDIAKPDRFEKQIRVFQEHPELDVVGAWIDEFEETTSNIISTRKLPEVHDDICQFAKKRNPENHPVIMFRKQAVLAAGGYQHFPLFEDYYLWIRMLQNGAKFYNIQESLLYFRFSPAMFKRRGGLKYVTTELRFQNQLRNLGFITSSEYLYNVFIRVITRMMPNTLRAILYKKALRK” here?
A: The protein production was “failed”.

Q: For “MSKLSLIQQLKQQKLSVGILSANWLQLNEEVTTLLENQINVLHFDIADGQFSSLFTVGAIGIKYFPTHCFKDVHLMVRNQLEVAKAVVANGANLVTLQLEQYHDFALTIEWLAKQKTTYANQVYPVLIGACLCPETPISELEPYLDQIDVIQLLTLDPRNGTKYPSELILDRVIQVEKRLGNRRVEKLINIDGSMTLELAKYFKQGTHQIDWLVSGSALFSGELKTNLKVWKSSIM”, which protein production is on record?
A: The protein production was “not failed”.

Q: Which protein production does the source give for “MSKLSLKIGTYFLILALCIETIAFVSFYKSLSKMRIVEETDALLEKGNRYSKKIKSRERRDEYYKEMKHAEHNKNPKRPVYPEFDITNEAAHLVESESISNSDIAIIITDHNGKIISTSEPVTKDMQKQLTCKTETVPDGGLVVERNWKKSKFITTVSPLNTTKFQGKLYMLLKTSFLENMLLKLMNQFLIISVLTIILTTISVFVFSRVITEPLVKMKRATEKMSKLNKPIQLGIKRNDELGSLAKTIEDLSSELTYMKKERNEFLASVAHELLTPLTYMKGYAKVAKRDSLTKEEREEYLQIIEDETDSVTDLVQDLFMLVQLEQHQFVIKKQKVLLQPFLERMVEKTKTTLTNKQMQLHVYCKDDLEVCIDERRMEQVMLNLLHNAYQHSPENTAITIRVLMETDSFTISVQDEGEGIPEEDIPHIFDRFYRVDKSRTRATGGKGIGLAVAKEIVELHNGSILVTSQLGAGTNFIIELPFE” here?
A: The protein production was “failed”.

Q: With “MSKPEFIARQGRKPTGWLGHIVARVMARETRPENDRALSFLDLADGDSLIDIGCGHGETLFQADRIVRLSGSVGVDFSEVMLKRARARNRDAVWDTRMAFHCADTAALPFPDKRFGKALSVHTIYFWPNPAAHLAEAFRVLRRGGRFLFCYRSTADRRAVEEFPDTVYRFPSVQEVEEKLKLVGFLGPETTTEDIKGLEHHHHHH” as the sequence, how does the protein production read?
A: Its protein production is “failed”.

Q: For “MSKPKIAIIVGSTRAARFADVPTQWIAKIAKSHADIDVEVVDLRDFPLPFFDEVASSAWVPSTNEVAQRWQKKVAEFDGFIFTAAEYNHGPTAVLKNAIDYAANEWNKKPAGFVGYGSVGGARAVEQLRLHAVELQMAPVKSAVHIAWGDFLAVRQGEKKLEDLDHLNQAASALVNDVAWWAKALKKARAADVVDEEIKAA”, which protein production is on record?
A: The protein production was “failed”.

Q: For “MSKRILFIVGSFSEGSFNRQLAKKAETIIGDRAQVSYLSYDRVPFFNQDLETSVHPEVAHAREEVQEADAIWIFSPVYNYAIPGPVKNLLDWLSRSLDLSDPTGPSVLQDKIVTVSSVANGASPEEVFEDYRSLLPFIRMHLVDQLTGVPINSEAWSTGILKVSAEKLAELSAQADALLSAVENLEHHHHHH”, which protein production is on record?
A: The protein production was “not failed”.

Q: For “MSKTERDKIKVEMEIDPHLSWQEKLAVEEQEKLSPRLVYEIIRRDGVEELSRPTSTLIFSGITAGLVMSFSFVFKAVIASYLPIDAVWTDLITNIGYTIGFLIAILGHLQLFTENTITTVIPLFKPFSLDKLKAVARLWSIVILTNIFGTALSSLFFLTTDLFSPEVDHALDEIAHHVASFTAWENFLKGVLSGLLIAALVWMLPSVNNKILLIFMITYLIGLGDFTHVVVGSVEVAYLVWQGQTSLSEYFFQFLVPTTLGNIIGGTGIFTLLIYGQVNQELEE”, which protein production is on record?
A: The protein production was “failed”.

Q: Which protein production does the source give for “MSKVDTIQEKLIPPIMKFANSKIITAIKDGVIITMPLTLVGSIFLLIANFPIKSWNSWMTAIFGPNWAVPLTQVSGSTFDIMAIAAVIGIAAQYSKNEGQDPVTAGLLGAVAFLIIMPSYSPINIGDKVGGIVMKHADKVQSVIPKAWTGGKGMIAALIIGVLTGYIYSWFLKRDIRIKLPESVPSGVSNAFSALIPGAVIITGSMLIFIFFNIVTGATALEWIYKVLQIPLQGITDSLGGAIAIPFVISFFWWFGVHGATLIGGVMNSIYQANTLANQDVFKAGHKLIASGAGKNAHIVCQQFQDNFVTLGGSGITLGLVAACFLFARSQRLKQLGKLALVPGCFNINEPVLFGLPIVLNPLMFIPFLICPLVSGILTYFAIYTGLVPCFTAVQAIWTTPPVLSGLIVAGWRGAVLQLIIIAIAAIVYFPFFKSLDKQYYQEEISGEAE” here?
A: The protein production was “failed”.

Q: With “MSKVNQQDIDKLIELVGGRGNIATVSHCITRLRFVLNDPAIARPKEIEQLRMVKGCFTNAGQFQVVIGTEVGDYYKALLATTGQTSADKEQVKQA” as the sequence, how does the protein production read?
A: The protein production was “not failed”.

Q: With “MSLALLLGYELPLTGANAAYGRVFQEAARLQLDRFNAAGGVGGRPVDILYADSRDDADQARTIARAFVDDPRVVGVLGDFSSTVSMAAGSIYGKEGMPQLSPTAAHPDYIKISPWQFRAITTPAFEGPNNAAWMIGDGFTSVAVIGVTTDWGLSSAQAFRKAFELRGGAVVVNEEVPPGNRRFDDVIDEIEDEAPQAIYLAMAYEDAAPFLRALRARGSALPVYGSSALYSPKFIDLGGPAVEGVRLATAFVLGASDPVVVEFVSAYETLYGAIPTLFAAHGYDAVGIMLAAVGRAGPEVTRESLRDALAATDRYAGVTGITRFDPETRETTKILTRLVVREGDFRVIDREGHHHHHH” as the sequence, how does the protein production read?
A: The protein production was “not failed”.

Q: With “MSLAMQDFRPGVYRHYKGDHYLALGLARADETDEVVVVYTRLYARAGLPMSTRLLRIWNETVDTGAGPQPRFAYVGHVTPEQGEGHHHHHH” as the sequence, how does the protein production read?
A: Its protein production is “not failed”.

Q: With “MSLAPRPRILICEDDPDIARLLNLMLEKGGFDSDMVHSAAQALEQVARRPYAAMTVDLNLPDQDGVSLIRALRRDSRTRDLAIVVVSANAREGELEFNSQPLAVSTWLEKPIDENLLILSLHRAIDNMAEGKEGHHHHHH” as the sequence, how does the protein production read?
A: The protein production was “not failed”.

Q: Which protein production does the source give for “MSLATQQLGIIGLFVPTFFGSYYGTILKQTDLELRAVHRHVVVATGCGESTPREQALEAVRFLIGRDCDGVVVISHDLHDEDLDELHRMHPKMVFLNRAFDALPDASFCPDHRRGGELAAATLIEHGHRKLAVISGPFTASDNVERLDGFFDELARHGIARDSVPLIESDFSPEGGYAATCQLLESKAPFTGLFCANDTMAVSALARFQQLGISVPGDVSVIGYDDDYSAAYAAPALTSVHIPTAELTQNAVRWLINQCYGTKWEIFREFPVTVSMRASVAREGHHHHHH” here?
A: The protein production was “not failed”.

Q: Which protein production does the source give for “MSLAWLISEFASVGDVTVRALRYYDKINLLKPSDYTEGGHRLYTKDDLYVLQQIQSFKHLGFSLGEIQNIILQRDIETEVFLRQMHFQREVLLAEQERIAKVLSHMDEMTKKFQKEERVNVALFSSFLQTFIWEKENKEGHHHHHH” here?
A: Its protein production is “not failed”.
